From publication PMC9405932

Molecular target: BCAS1-SV1 (novel splice variant of BCAS1), full length, Gal4 fusion for yeast two-hybrid (human)
Sequence (O75363 whole entry, change not shown, the tested form may be a part, canonical isoform): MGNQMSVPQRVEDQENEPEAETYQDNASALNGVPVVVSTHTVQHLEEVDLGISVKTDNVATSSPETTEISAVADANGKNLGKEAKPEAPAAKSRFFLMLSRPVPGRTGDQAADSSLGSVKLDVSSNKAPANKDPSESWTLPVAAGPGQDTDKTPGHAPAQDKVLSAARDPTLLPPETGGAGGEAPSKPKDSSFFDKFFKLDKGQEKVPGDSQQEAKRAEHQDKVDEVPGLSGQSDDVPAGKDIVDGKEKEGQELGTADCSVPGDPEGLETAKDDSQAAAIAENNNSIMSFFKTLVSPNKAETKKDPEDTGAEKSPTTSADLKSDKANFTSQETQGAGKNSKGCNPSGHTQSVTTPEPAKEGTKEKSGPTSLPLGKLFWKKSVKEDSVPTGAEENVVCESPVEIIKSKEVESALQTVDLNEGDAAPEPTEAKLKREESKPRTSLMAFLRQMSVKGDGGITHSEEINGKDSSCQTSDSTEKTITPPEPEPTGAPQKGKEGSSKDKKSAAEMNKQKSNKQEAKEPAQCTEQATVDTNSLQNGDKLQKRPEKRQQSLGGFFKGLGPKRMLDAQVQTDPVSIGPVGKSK

decrease of migration of GBM8401 cells (scratch wound assay) by maackiain (MK), dose series up to 1 μM; MK is said to disrupt the pair: 67%
decrease of migration of M059K cells (scratch wound assay) by maackiain (MK), dose series up to 1 μM; MK is said to disrupt the pair: 70%
Substance: β-arrestin 2 (ARRB2), full length, Gal4 fusion for yeast two-hybrid (from UniProt P32121-1 1-409) (natural protein)
